Molecular target: PCV2-ORF2-antigens coated on ELISA plates (porcine circovirus type 2 (PCV2))
Assay: competitive ELISA on PCV2-ORF2-antigens, competitor HRP-conjugated anti-PCV2 mab; residual signal of the mab

positive control of commercialized testkit (Ingenasa)
OD: 0.343 OD at 450 nm

Reference: patent publication US20130251719A1
